Tests used:
KE4-CTL = assay: IFN-γ production from KE4-CTL against VA13 cells co-transfected with cDNA clone and HLA-A2601; assay type: cell-based, human
From the text: A gene encoding a tumor antigen recognized by KE4-CTL was isolated/identified from a human esophageal cancer cell line KE4 according to a known method [J. Exp. Med., 187: 277-288, 1998.] First of all, poly (A) ^+RNA of KE4 cells was converted to cDNA, ligated with a SalI adaptor so as to insert into the expression vector pSV-SPORT-1 (Invitrogen Corp.). Moreover, cDNA of HLA-A2601 was obtained by the reverse transcription-polymerase chain reaction (RT-PCR) and cloned into the eukaryotic cell expression vector pCR3 (Invitrogen Corp.).
A cDNA library of KE4 cells was pooled so that each pool contained 100 clones, and 200 ng of the cDNA pooled in each well and 200 ng of the HLA-A2601cDNA were mixed in 100 μl of lipofectoamine (Invitrogen Corp.)/Opti-MEM (Invitrogen Corp.) 1:200 mixture for 30 min. 50 μl of the obtained mixture was added to VA13 cells (1×10^4), and incubated for 6 h for co-transduction. Then, RPMI-1640 culture medium containing 10% FCS was added thereto and culturing was carried out for 2 days, followed by addition of KE4-CTL (2×10^5) to each well. After a further 18 h incubation, 100 μl of the supernatant was collected, and IFN-γ production was measured by ELISA.
A pool of cDNA library was screened with the criteria in which cDNA capable of enhancing IFN-γ production from KE4-CTL was judged as a positive one having CTL-activating ability. […]

OK-CTLd = assay: IFN-γ production from OK-CTLd against COS-7 cells co-transfected with cDNA clone and HLA-A0207 (ELISA); assay type: cell-based, human
Method: Cryopreserved OK-CTLd was cultured in the presence of 100 U/ml of IL-2 for 2 weeks or more to use in the experiments.
A cDNA library of SW620 cells was pooled so that each pool contained 100 clones, and 200 ng of the cDNA pooled in each well and 200 ng of the HLA-A0207 cDNA were mixed in 100 ul of lipofectoamine (Invitrogen Corp.)/Opti-MEM (Invitrogen Corp.) 1:200 mixture for 30 min. 50 μl of the obtained mixture was added to a simian kidney cell line COS-7 (1×10^4), and incubated for 6 h for co-transduction. Then, RPMI-1640 culture medium containing 10% FCS was added to and culturing was carried out for 2 days, followed by addition of OK-CTLd (2×10^5) to each well. After a further 18 h incubation, 100 μl of the supernatant was collected, and IFN-γ production was measured by ELISA. In this case, as a negative control, using COS-7 cells into which the gene had not been transfected as a target, IFN-γ production from OK-CTLd was examined and the value of IFN-γ produced was subtracted as a background from that of each measurement.
A pool of cDNA library was screened with the criteria in which cDNA capable of enhancing IFN-γ production from OK-CTLd was judged as a positive one having CTL-activating ability. […]

B1: KE4-cl.18: cDNA clone from esophageal cancer cell line KE4 encoding KE4-18-PP (nucleic acid, listed as Homo sapiens)
DNA: GGGGCCGGGGCCGAGGCCGCGGAGCTCGCGGAGGCAAGGCCGAGGATAAGGAGTGGATGCCCGTCACCAAGTTGGGCCGCTTGGTCAAGGACATGAAGATCAAGTCCCTGGAGGAGATCTATCTCTTCTCCCTGCCCATTAAGGAATCAGAGATCATTGATTTCTTCCTGGGGGCCTCTCTCAAGGATGAGGTTTTGAAGATTATGCCAGTGCAGAAGCAGACCCGTGCCGGCCAGCGCACCAGGTTCAAGGCATTTGTTGCTATCGGGGACTACAATGGCCACGTCGGTCTGGGTGTTAAGTGCTCCAAGGAGGTGGCCACCGCCATCCGTGGGGCCATCATCCTGGCCAAGCTCTCCATCGTCCCCGTGCGCAGAGGCTACTGGGGGAACAAGATCGGCAAGCCCCACACTGTCCCTTGCAAGGTGACAGGCCGCTGCGGCTCTGTGCTGGTACGCCTCATCCCTGCACCCAGGGGCACTGGCATCGTCTCCGCACCTGTGCCTAAGAAGCTGCTCATGATGGCTGGTATCGATGACTGCTACACCTCAGCCCGGGGCTGCACTGCCACCCTGGGCAACTTCGCCAAGGCCACCTTTGATGCCATTTCTAAGACCTACAGCTACCTGACCCCCGACCTCTGGAAGGAGACTGTATTCACCAAGTCTCCCTATCAGGAGTTCACTGACCACCTCGTCAAGACCCACACCAGAGTCTCCGTGCAGCGGACTCAGGCTCCAGCTGTGGCTACAACATAGGGTTTTTATACAAGAAAAATAAAGTGAATTTAGCGTGAAAAAAAAAAAAAAAAAAAAAAAAAA
Q: Which “recognition of cDNA clone by KE4-CTL, enhancement of IFN-γ production” value (KE4-CTL) does the source give for B1 here?
A: Its value is “recognized by KE4-CTL in an HLA-A26-restricted manner and in a dose dependent manner of plasmid”.

B2: SW620-cl.48: cDNA clone from SW620 encoding SW620-48-PP (nucleic acid, listed as Homo sapiens)
DNA: CCTTTCCAAGGGAGTGGTTGTGTGATCGCCATCTTAGGGAAAAGATGTTCTCGTCCGTGGCGCACCTGGCGCGGGCGAACCCCTTCAACACGCCACATCTGCAGCTGGTGCACGATGGTCTCGGGGACCTCCGCAGCAGCTCCCCAGGGCCCACGGGCCAGCCCCGCCGCCCTCGCAACCTGGCAGCCGCCGCCGTGGAAGAGTACAGTTGTGAATTTGGCTCCGCGAAGTATTATGCACTGTGTGGCTTTGGTGGGGTCTTAAGTTGTGGTCTGACACACACTGCTGTGGTTCCCCTGGATTTAGTGAAATGCCGTATGCAGGTGGACCCCCAAAAGTACAAGGGCATATTTAACGGATTCTCAGTTACACTTAAAGAGGATGGTGTTCGTGGTTTGGCTAAAGGATGGGCTCCGACTTTCCTTGGCTACTCCATGCAGGGACTCTGCAAGTTTGGCTTTTATGAAGTCTTTAAAGTCTTGTATAGCAATATGCTTGGAGAGGAGAATACTTATCTCTGGCGCACATCACTATATTTGGCTGCCTCTGCCAGTGCTGAATTCTTTGCTGACATTGCCCTGGCTCCTATGGAAGCTGCTAAGGTTCGAATTCAAACCCAGCCAGGTTATGCCAACACTTTGAGGGATGCAGCTCCCAAAATGTATAAGGAAGAAGGCCTAAAAGCATTCTACAAGGGGGTTGCTCCTCTCTGGATGAGACAGATACCATACACCATGATGAAGTTCGCCTGCTTTGAACGTACTGTTGAAGCACTGTACAAGTTTGTGGTTCCTAAGCCCCGCAGTGAATGTTCAAAGCCAGAGCAGCTGGTTGTAACATTTGTAGCAGGTTACATAGCTGGAGTCTTTTGTGCAATTGTTTCTCACCCTGCTGATTCTGTGGTATCTGTGTTGAATAAAGAAAAAGGTAGCAGTGCTTCTCTGGTCCTCAAGAGACTTGGATTTAAAGGTGTATGGAAGGGACTGTTTGCCCGTATCATCATGATTGGTACCCTGACTGCACTACAGTGGTTTATCTATGACTCCGTGAAGGTCTACTTCAGACTTCCTCGCCCTCCTCCACCCGAGATGCCAGAGTCTCTGAAGAAGAAGCTTGGGTTAACTCAGTAGTTAGATCAAAGCAAATGTGGACTGAATCTGCTTGTTGATCAGTGTTGAAGAAAGTGCAAAAGGAACTTTTATATATTTGACAGTGTAGGAAATTGTCTATTCCTGATATAATTACTGTAGTACTCTTGCTTAAGGCAAGAGTTTCAGATTTACTGTTGAAATAAACCCAACTCTTCATGAAAAAAAAAAAAAAA
Q: Which “recognition of cDNA clone by OK-CTLd, enhancement of IFN-γ production” value (OK-CTLd) does the source give for B2 here?
A: Its value is “recognized by OK-CTLd in an HLA-A2-restricted manner and in a dose dependent manner of plasmid”.

— US20050042624A1, “Tumor antigen” (Kyogo ITOH, priority 2001, published 2005)
